Target: human indoleamine 2,3-dioxygenase 1 (IDO1) (human, UniProt P14902 1-403)
Experiment: IHC on FFPE HeLa cells (untreated or IFN-gamma treated) and FFPE human tissues
Protocol: The anti-IDO1 antibodies generated in Example 1 were used in further IHC analyses. For IHC analyses, tissue sections were incubated with the antibodies for 16 min followed by standard washes and secondary detection with Optiview DAB IHC Detection Kit (Ventana Medical System, Inc., Tucson, Ariz.). The specificity of each antibody was assessed on formalin-fixed, paraffin-embedded (FFPE) cells with different IDO1 expression levels (human cervical cancer HeLa cells that are either untreated as control (negative) or treated with interferon-γ (high expression); see FIGS. 2A-2b) or from different tissue types (Tonsil, Thymus, Colon, Endometrial adenocarcinoma, Ovarian adenocarcinoma, Pancreatic adenocarcinoma, and Stomach adenocarcinoma; see FIGS. 3A-3G).

Chain of human indoleamine 2,3-dioxygenase 1 (IDO1) (P14902 whole entry): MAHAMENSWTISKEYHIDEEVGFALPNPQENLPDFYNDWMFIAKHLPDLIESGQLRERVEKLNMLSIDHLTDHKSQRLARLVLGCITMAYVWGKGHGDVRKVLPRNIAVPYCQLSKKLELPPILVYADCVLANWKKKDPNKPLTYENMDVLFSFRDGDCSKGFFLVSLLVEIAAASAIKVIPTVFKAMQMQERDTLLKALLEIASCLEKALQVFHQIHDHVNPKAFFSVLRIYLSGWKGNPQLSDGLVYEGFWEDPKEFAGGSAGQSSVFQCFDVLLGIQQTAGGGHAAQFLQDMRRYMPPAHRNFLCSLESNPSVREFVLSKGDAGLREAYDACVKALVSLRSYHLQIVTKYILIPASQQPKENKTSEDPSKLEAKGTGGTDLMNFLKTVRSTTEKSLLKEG

Binder | binding result
J6H15L16 antibody (antibody, V domains shown, the constant regions are not) VH: QEQLVESGGGLVQPEGSLTLTCTASGFSFSTNYWICWVRQAPGKGLEWTACIYIGGRGSIYYASWAKGRFTISKTSSTTVTLQMTSLTAADTATYFCARDLTTAYGATDLRFWGPGTLVTVSS VL: DVVMTQTPSPVSAAVGGTVSISCQSSQSVGDNNRLSWFQQKPGQPPKLLIYSASTLASGVPSRFKGSGSGTEYTLTISGVQCDDAATYYCLGEFSGSDEDVFGGGTEVVVK | binds
J6H12L16 antibody (antibody, V domains shown, the constant regions are not) VH: QEQLVESGGGLVRPEGSLTLTCTASGFSFSTNYWICWVRQAPGKGLEWTACIYIGGRGSIYYASWAKGRFTISKTSSTTVTLQMTSLTAADTATYFCARDLTTAYGATDLRFWGPGTLVTVSS VL: DVVMTQTPSPVSAAVGGTVSISCQSSQSVGDNNRLSWFQQKPGQPPKLLIYSASTLASGVPSRFKGSGSGTEYTLTISGVQCDDAATYYCLGEFSGSDEDVFGGGTEVVVK | binds

Second part, the binder after the results:

binding result | Binder
binds | anti-IDO1 antibody SP260 (antibody, V domains shown, the constant regions are not) VH: QEQLVESGGGLVQPEGSLTLTCTASGFSFSTNYWICWVRQAPGKGLEWTACIYVGGRGSIYYASWAKGRFTISKTSSTTVTLQMTSLTAADTATYFCARDLTTAYGATDLRFWGPGTLVTVSS VL: DVVMTQTPSPVSAAVGGTVSISCQSSQSVGDNNRLSWFQQKPGQPPKLLIYSASTLASGVPSRFKGSGSGTEYTLTISGVQCDDAATYYCLGEFSGSDEDVFGGGTEVVVK
binds | J6H20L16 antibody (antibody, V domains shown, the constant regions are not) VH: QEQLVESGGGLVQPEGSLTLTCTASGFSFSTNYWICWVRQAPGKGLEWTACIYIGGRGSIYYASWAKGRFTISKTSSTTVTLQMTSLTAADTATYSCARDLTTAYGATDLRFWGPGTLVTVSS VL: DVVMTQTPSPVSAAVGGTVSISCQSSQSVGDNNRLSWFQQKPGQPPKLLIYSASTLASGVPSRFKGSGSGTEYTLTISGVQCDDAATYYCLGEFSGSDEDVFGGGTEVVVK

From patent US20170146535A1 (SPRING BIOSCIENCE, published 2017)
